Laboratory results from patent US7781394B2, “Methods for identifying anti-tumor and/or anti-angiogenesis drugs with deoxynucleoside 5′-monophosphate N-glycosidase as the target” (Institut Pasteur, priority 2006, dated 2010).

Columns and labels:
Rat1a-MYC cells = assay: In vitro growth of Rat1a-MYC cells overexpressing dominant negative Rcl E93A; assay type: cell-based, rat; details: Rat1a-MYC cells overexpressing the mutant
Text: (§1) In addition to the studies on RCL (C6orf108) gain-of-function in tumorigenesis, we determined the effect of loss of RCL function on tumorigenesis with the Rat1a-Myc cells. We generated control Rat1a-MYC cells and Rat1a-MYC cells that overexpress the dominant negative Rcl E 93A mutant. Two independent control transfected cell pools and two independent Rcl E 93A Rat1a-MYC transfectant cell pools were studied (FIG. 7).

[1] = test system: Rat1a-MYC cell xenografts; assay: Nude mouse xenografts of Rat1a-MYC-Rcl-E93A cells, tumorigenicity; assay type: in vivo; details: two independent cell pools
Text: FIG. 7A. Immunoblot showing expression of Rcl-E93A protein in 293T cells; pPURO (pBabe-Puro) represents control transfected cells; none=untransfected cells. B. Immunoblot showing expression of Rcl and Rcl-E 93A in Rat1a-MYC cells (which have high levels of endogenous Rcl). Numbers at the top represents different cell pools. Numbers at the bottom represents normalized relative expression. C. Agarose gel showing expression of Rcl-E93A mRNA in transfectants by RT-PCR of control pPURO or Rcl-E93A expressing Rat1a-MYC cell pools. Signals are dependent on reverse transcriptase (not shown) D. Tumor sizes of pBABE (pools 1 and 2) control Rat1a-Myc cell pools compared with RCL E93A expressing Rat1a-MYC cell pools (E93A#1+E93A#4). Average tumor sizes determined by caliper are shown for groups of nine animals. Error bars are standard deviations.
as §1

B1: Rcl E 93A: dominant negative RCL mutant, Glu-93 replaced by Ala, overexpressed in Rat1a-MYC cells (protein, UniProt O35820 2-163, looked up, variant E93A)
5-hydroxymethyl-dUMP …: AASGEQAPCSVYFCGSIRGGREDQALYARIVSRLRRYGKVLTEHVADAELEPLGEEAAGGDQFIHEQDLNWLQQADVVVAEVTQPSLGVGYALGRAVALGKPILCLFRPQSGRVLSAMIRGAADGSRFQVWDYAEGEVETMLDRYFEAYLPQKTASSSHPSA
B1 was tested, and the “effect on growth rates in vitro” value (Rat1a-MYC cells) was “does not affect growth rates” and the “tumorigenicity of xenografts versus control cell pools” value [1] was “remarkable decrease in tumorigenicity”.
